Reference: article PMC9751095, “The mitochondrial chaperone TRAP1 regulates F-ATP synthase channel formation” (Cell Death and Differentiation, 2022)

Target: T1, recombinant mature human OSCP (human, UniProt P48047 24-213)
T1 construct: human F-ATP synthase subunit OSCP, mature protein
T1 sequence (looked up): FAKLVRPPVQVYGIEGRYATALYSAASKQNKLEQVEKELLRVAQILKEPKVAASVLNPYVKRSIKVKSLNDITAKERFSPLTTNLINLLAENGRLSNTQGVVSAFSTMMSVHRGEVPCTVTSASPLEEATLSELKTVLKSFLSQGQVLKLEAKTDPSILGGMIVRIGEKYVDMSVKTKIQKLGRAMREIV
Assay: SPR; Biacore T100, CM5 chip, CyPD immobilized by amine coupling (800-1200 RU); OSCP injected at increasing concentrations; Langmuir interaction model
Settings: both partners purified

- binding result: binds
B1: purified recombinant human cyclophilin D (enzyme)
chain: not shown
notes: human cyclophilin D, cDNA from a human placenta library; called 'recombinant mature human' for the SPR; also called CyPD; CypD; source: E. coli BL21(DE3)pLysS (plasmid pSUMO-Cyclophilin D), purified
